Target: AviTag-His6-OAZ-GSY-SPM-Ctag (wt, with C175A) (human | Neisseria meningitidis …, UniProt Q9JYV5 414-657, biotin on the AviTag)
Experiment: SPR

B1: His6-ODC-Ctag (human Ornithine Decarboxylase) (enzyme)
chain: NNFGNEEFDCHFLDEGFTAKDILDQKINEVSSSDDKDAFYVADLGDILKKHLRWLKALPRVTPFYAVKCNDSKAIVKTLAATGTGFDCASKTEIQLVQSLGVPPERIIYANPCKQVSQIKYAANNGVQMMTFDSEVELMKVARAHPKAKLVLRIATDDSKAVCRLSVKFGATLRTSRLLLERAKELNIDVVGVSFHVGSGCTDPETFVQAISDARCVFDMGAEVGFSMYLLDIGGGFPGSEDVKLKFEEITGVINPALDKYFPSDSGVRIIAEPGRYYVASAFTLAVNIIAKKIVLKEQTGSDDEDESSEQTFMYYVNDGVYGSFNCILYDHAHVKPLLQKRPKPDEKYYSSSIWGPTCDGLDRIVERCDLPEMHVGDWMLFENMGAYTVAAASTFNGFQRPTIYYVMSGPAWQLMQQFQ
Q: For B1, which koff is on record?
A: 0.0028 s⁻¹

B2: ODC ΔN 4KR (enzyme)
chain: DCHFLDEGFTAKDILDQKINEVSSSDDKDAFYVADLGDILKKHLRWLKALPRVTPFYAVKCNDSRAIVRTLAATGTGFDCASRTEIQLVQSLGVPPERIIYANPCKQVSQIRYAANNGVQMMTFDSEVELMKVARAHPKAKLVLRIATDDSKAVCRLSVKFGATLRTSRLLLERAKELNIDVVGVSFHVGSGCTDPETFVQAISDARCVFDMGAEVGFSMYLLDIGGGFPGSEDVKLKFEEITGVINPALDKYFPSDSGVRIIAEPGRYYVASAFTLAVNIIAKKIVLKEQTGSDDEDESSEQTFMYYVNDGVYGSFNCILYDHAHVKPLLQKRPKPDEKYYSSSIWGPTCDGLDRIVERCDLPEMHVGDWMLFENMGAYTVAAASTFNGFQRPTIYYVMSGPAWQLMQQFQNPDFPPEVEEQDASTLPVSCAWESGMKRHRAACASASIN
Q: B2 was tested. Which Kd did it give?
A: 22 nM

Q: And the koff?
A: 0.0024 s⁻¹

Reference: article PMC7846742 (2021)
